From PMC5589196 (Cell, 2016) come the findings set out here.

First the molecules themselves.
B1: Tfb3 (natural protein, S. cerevisiae, UniProt Q03290 1-321, looked up)
chain: MLMDEYEENKDMCPICKTDRYLSPDVKFLVNPECYHRICESCVDRIFSLGPAQCPYKGCDKILRKNKFKTQIFDDVEVEKEVDIRKRVFNVFNKTIDDFNGDLVEYNKYLEEVEDIIYKLDHGIDVAKTEEKLRTYEELNKQLIMNNLERSRTEIESFEQRQKFEKEMKLKKRLLERQIEEEERMNKEWTKKEIVNRLSTTTQDINETIEGVKNTVKLKKSSARRKLEELNRVLKNNPYFNSNVNVQNSRLKDAVPFTPFNGDREAHPRFTLKGSVYNDPFIKDLEHRKEFIASGFNTNYAYERVLTEAFMGLGCVISEEL
B2: Tfg3 (natural protein, S. cerevisiae, UniProt P35189 1-244, looked up)
chain: MVATVKRTIRIKTQQHILPEVPPVENFPVRQWSIEIVLLDDEGKEIPATIFDKVIYHLHPTFANPNRTFTDPPFRIEEQGWGGFPLDISVFLLEKAGERKIPHDLNFLQESYEVEHVIQIPLNKPLLTEELAKSGSTEETTANTGTIGKRRTTTNTTAEPKAKRAKTGSASTVKGSVDLEKLAFGLTKLNEDDLVGVVQMVTDNKTPEMNVTNNVEEGEFIIDLYSLPEGLLKSLWDYVKKNTE
B3: Rpb9 (natural protein, S. cerevisiae, UniProt P27999 1-122, looked up)
chain: MTTFRFCRDCNNMLYPREDKENNRLLFECRTCSYVEEAGSPLVYRHELITNIGETAGVVQDIGSDPTLPRSDRECPKCHSRENVFFQSQQRRKDTSMVLFFVCLSCSHIFTSDQKNKRTQFS
B4: TFIIE (complex, S. cerevisiae)
chain 1: MDRPIDDIVKNLLKFVVRGFYGGSFVLVLDAILFHSVLAEDDLKQLLSINKTELGPLIARLRSDRLISIHKQREYPPNSKSVERVYYYVKYPHAIDAIKWKVHQVVQRLKDDLDKNSEPNGYMCPICLTKYTQLEAVQLLNFDRTEFLCSLCDEPLVEDDSGKKNKEKQDKLNRLMDQIQPIIDSLKKIDDSRIEENTFEIALARLIPPQNQSHAAYTYNPKKGSTMFRPGDSAPLPNLMGTALGNDSSRRAGANSQATLHINITTASDEVAQRELQERQAEEKRKQNAVPEWHKQSTIGKTALGRLDNEEEFDPVVTASAMDSINPDNEPAQETSYQNNRTLTEQEMEERENEKTLNDYYAALAKKQAKLNKEEEEEEEEEEDEEEEEEEEMEDVMDDNDETARENALEDEFEDVTDTAGTAKTESNTSNDVKQESINDKTEDAVNATATASGPSANAKPNDGDDDDDDDDDEMDIEFEDV
chain 2: MSKNRDPLLANLNAFKSKVKSAPVIAPAKVGQKKTNDTVITIDGNTRKRTASERAQENTLNSAKNPVLVDIKKEAGSNSSNAISLDDDDDDEDFGSSPSKKVRPGSIAAAALQANQTDISKSHDSSKLLWATEYIQKKGKPVLVNELLDYLSMKKDDKVIELLKKLDRIEFDPKKGTFKYLSTYDVHSPSELLKLLRSQVTFKGISCKDLKDGWPQCDETINQLEEDSKILVLRTKKDKTPRYVWYNSGGNLKCIDEEFVKMWENVQLPQFAELPRKLQDLGLKPASVDPATIKRQTKRVEVKKKRQRKGKITNTHMTGILKDYSHRV
B5: Med1 (natural protein, S. cerevisiae, UniProt Q12321 1-566, looked up)
chain: MVEGDSYVETLDSMIELFKDYKPGSITLENITRLCQTLGLESFTEELSNELSRLSTASKIIVIDVDYNKKQDRIQDVKLVLASNFDNFDYFNQRDGEHEKSNILLNSLTKYPDLKAFHNNLKFLYLLDAYSHIESDSTSHNNGSSDKSLDSSNASFNNQGKLDLFKYFTELSHYIRQCFQDNCCDFKVRTNLNDKFGIYILTQGINGKEVPLAKIYLEENKSDSQYRFYEYIYSQETKSWINESAENFSNGISLVMEIVANAKESNYTDLIWFPEDFISPELIIDKVTCSSNSSSSPPIIDLFSNNNYNSRIQLMNDFTTKLINIKKFDISNDNLDLISEILKWVQWSRIVLQNVFKLVSTPSSNSNSSELEPDYQAPFSTSTKDKNSSTSNTEPIPRSNRHGSVVEASRRRRSSTNKSKRPSITEAMMLKEEGLQQFNLHEILSEPAIEEENGDSIKEHSTTMDGANDLGFTASVSNQENAGTDIVMEDHGVLQGTSQNYGTATADDADIEMKDVSSKPSKPESSVLQLIVSEDHIILDTISECNLYDDVKCWSKFIEKFQDIVS

For assay [1], the target named is T1, Rad3 (S. cerevisiae, UniProt P06839 1-778).
T1 sequence (looked up): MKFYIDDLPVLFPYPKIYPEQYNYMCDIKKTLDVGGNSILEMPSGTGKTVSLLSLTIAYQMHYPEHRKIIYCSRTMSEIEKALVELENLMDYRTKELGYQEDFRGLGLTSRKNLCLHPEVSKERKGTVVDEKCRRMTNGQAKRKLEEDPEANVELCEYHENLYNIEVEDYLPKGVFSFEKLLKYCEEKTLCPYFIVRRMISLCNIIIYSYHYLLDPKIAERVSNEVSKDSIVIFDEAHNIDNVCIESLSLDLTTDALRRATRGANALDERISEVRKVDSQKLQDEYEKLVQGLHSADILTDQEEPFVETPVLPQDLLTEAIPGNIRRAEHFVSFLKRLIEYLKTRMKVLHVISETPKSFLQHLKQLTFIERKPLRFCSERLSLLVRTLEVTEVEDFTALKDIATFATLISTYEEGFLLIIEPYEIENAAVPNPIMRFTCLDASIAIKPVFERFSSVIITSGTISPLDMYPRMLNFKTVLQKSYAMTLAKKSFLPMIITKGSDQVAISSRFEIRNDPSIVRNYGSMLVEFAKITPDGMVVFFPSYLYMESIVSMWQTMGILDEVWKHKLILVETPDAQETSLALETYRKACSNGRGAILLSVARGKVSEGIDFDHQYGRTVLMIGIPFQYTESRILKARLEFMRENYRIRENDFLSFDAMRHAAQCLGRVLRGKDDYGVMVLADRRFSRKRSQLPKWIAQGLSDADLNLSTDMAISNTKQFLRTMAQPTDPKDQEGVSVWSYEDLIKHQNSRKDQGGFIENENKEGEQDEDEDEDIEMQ
The assay is described as follows: cross-linking.

Assay [2] deals with T2, Tfg1 (S. cerevisiae, UniProt P41895 1-735).
T2 sequence (looked up): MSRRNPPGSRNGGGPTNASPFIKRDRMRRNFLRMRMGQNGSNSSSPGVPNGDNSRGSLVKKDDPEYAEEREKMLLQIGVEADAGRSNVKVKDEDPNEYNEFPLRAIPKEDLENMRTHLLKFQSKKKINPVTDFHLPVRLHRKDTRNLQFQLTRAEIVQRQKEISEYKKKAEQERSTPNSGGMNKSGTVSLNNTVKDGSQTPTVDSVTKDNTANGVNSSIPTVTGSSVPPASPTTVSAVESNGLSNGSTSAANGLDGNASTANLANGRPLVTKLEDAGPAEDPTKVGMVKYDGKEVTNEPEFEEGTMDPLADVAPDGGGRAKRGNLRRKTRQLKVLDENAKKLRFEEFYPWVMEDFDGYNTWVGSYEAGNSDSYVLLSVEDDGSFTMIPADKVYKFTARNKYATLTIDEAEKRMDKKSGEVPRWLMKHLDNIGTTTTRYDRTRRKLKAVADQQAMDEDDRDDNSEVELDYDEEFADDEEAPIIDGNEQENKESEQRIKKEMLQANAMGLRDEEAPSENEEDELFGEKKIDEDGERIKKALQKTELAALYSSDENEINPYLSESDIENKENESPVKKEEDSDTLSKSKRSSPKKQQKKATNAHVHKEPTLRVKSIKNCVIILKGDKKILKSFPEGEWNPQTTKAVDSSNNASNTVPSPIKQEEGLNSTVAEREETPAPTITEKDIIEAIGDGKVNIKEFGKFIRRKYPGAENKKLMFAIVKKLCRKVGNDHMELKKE
The experiment in a line: cross-linking + cryo-EM structure.

In assay [3] the target is B2. The experiment in a line: cross-linking + cryo-EM structure.
The target in assay [4] is T3, TFIIF (S. cerevisiae, UniProt P41895 1-735; P41896 1-400; P35189 1-244).
T3 sequence (looked up) 1: T2 sequence (looked up)
T3 sequence (looked up) 2: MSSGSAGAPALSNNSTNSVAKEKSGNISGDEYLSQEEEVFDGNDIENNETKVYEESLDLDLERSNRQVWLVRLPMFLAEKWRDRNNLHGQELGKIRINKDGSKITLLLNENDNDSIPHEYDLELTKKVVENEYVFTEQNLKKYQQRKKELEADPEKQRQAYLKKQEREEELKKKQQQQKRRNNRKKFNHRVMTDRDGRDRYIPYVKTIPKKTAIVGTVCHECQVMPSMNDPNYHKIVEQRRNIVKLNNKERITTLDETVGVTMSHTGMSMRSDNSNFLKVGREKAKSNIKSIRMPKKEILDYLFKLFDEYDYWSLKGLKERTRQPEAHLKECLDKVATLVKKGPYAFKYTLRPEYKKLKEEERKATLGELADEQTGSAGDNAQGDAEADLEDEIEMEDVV
T3 sequence (looked up) 3: B2 chain
The experiment in a line: cross-linking.

The target of assay [5] is T4, Med5 (S. cerevisiae, UniProt P53114 1-1132).
T4 sequence (looked up): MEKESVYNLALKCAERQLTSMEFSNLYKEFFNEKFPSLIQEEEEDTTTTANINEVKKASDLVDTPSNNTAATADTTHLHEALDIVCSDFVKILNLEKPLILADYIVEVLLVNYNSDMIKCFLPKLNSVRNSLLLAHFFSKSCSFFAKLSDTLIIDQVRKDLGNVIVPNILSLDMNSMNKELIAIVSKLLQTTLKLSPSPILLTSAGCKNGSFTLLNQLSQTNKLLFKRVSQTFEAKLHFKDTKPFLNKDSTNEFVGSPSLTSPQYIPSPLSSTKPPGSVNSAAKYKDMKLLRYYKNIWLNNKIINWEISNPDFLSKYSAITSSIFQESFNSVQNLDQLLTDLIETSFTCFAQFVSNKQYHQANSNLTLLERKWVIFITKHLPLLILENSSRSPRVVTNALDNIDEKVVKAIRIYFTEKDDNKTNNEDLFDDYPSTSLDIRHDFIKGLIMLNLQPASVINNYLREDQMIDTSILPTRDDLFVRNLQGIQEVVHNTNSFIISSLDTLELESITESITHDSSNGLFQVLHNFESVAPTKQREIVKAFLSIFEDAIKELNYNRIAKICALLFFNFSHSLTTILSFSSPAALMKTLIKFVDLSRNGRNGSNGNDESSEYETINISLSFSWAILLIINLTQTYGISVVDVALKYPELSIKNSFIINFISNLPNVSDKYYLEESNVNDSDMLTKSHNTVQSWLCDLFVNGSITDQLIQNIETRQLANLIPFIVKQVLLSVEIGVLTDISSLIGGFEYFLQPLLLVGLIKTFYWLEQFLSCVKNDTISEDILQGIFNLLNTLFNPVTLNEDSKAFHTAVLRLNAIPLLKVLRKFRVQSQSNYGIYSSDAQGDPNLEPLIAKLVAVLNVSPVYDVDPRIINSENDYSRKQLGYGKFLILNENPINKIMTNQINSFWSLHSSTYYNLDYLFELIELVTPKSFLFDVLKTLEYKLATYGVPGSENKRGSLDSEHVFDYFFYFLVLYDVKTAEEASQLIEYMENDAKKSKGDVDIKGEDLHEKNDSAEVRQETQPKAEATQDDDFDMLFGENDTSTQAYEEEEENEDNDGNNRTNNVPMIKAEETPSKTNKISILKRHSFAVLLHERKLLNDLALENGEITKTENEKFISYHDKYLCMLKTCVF
The assay is described as follows: cross-linking.

B1: the binding result in assay [1] is listed as “binds”. As for B2, the binding result in assay [2] is listed as “binds”. Regarding B3, the binding result in assay [3] is listed as “binds”. Consider B4, for which the binding result in assay [4] is given as “binds”.

With B5, in assay [5], the binding result was “binds”.
